The target of experiment [1] is T1, control CD19 protein (UniProt P15391 20-291, limits assumed).
T1 sequence (looked up): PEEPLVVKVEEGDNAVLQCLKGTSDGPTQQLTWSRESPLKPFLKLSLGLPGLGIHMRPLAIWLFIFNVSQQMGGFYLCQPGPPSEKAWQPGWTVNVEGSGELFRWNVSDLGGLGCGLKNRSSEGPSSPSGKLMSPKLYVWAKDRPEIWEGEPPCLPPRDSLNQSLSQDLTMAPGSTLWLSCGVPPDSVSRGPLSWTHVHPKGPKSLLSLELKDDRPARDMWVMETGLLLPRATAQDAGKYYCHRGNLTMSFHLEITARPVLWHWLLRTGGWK
The experiment can be described thus: phage ELISA. For orientation: An ELISA detects its analyte on a solid surface through an enzyme-linked reagent.

Experiment [2] concerns the target T2, rat serum albumin (rat, UniProt P02770 25-608, biotinylated).
T2 construct: also called RSA; RSA-biotin
The experiment can be described thus: phage ELISA, RSA-biotin on streptavidin plate.

The target of experiment [3] is T3, mouse serum albumin (mouse, UniProt P07724 25-608, biotinylated).
T3 construct: also called MSA; MSA-biotin
The experiment in a line: phage ELISA, MSA-biotin on streptavidin plate.

The target of experiment [4] is T4, streptavidin (streptavidin coated plate, wells without immobilized CD5) (UniProt P22629 37-163, limits assumed).
T4 construct: also called control streptavidin
The experiment in a line: phage ELISA, streptavidin coated wells without immobilized CD5.

In experiment [5] the target is T5, CD5 expressed on the cell surface (transfected HEK293T cells; Raji cells ectopically expressing wild type CD5) (UniProt P06127 25-495, limits assumed).
T5 sequence (looked up): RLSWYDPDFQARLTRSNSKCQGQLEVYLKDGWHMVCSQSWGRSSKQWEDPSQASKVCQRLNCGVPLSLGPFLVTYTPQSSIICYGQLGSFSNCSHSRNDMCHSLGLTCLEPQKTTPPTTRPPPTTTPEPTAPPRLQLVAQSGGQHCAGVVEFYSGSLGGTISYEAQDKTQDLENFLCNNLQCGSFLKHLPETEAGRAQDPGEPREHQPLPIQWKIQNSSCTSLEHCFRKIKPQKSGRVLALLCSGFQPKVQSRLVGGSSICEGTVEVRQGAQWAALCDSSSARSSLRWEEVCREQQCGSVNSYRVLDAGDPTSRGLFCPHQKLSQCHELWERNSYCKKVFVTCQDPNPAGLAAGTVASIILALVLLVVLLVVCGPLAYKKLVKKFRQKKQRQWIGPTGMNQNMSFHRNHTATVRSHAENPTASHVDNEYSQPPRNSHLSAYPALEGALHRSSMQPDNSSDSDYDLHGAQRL
The experiment can be described thus: cell-based or functional assay.

T2 sequence (P02770 25-608 limits assumed): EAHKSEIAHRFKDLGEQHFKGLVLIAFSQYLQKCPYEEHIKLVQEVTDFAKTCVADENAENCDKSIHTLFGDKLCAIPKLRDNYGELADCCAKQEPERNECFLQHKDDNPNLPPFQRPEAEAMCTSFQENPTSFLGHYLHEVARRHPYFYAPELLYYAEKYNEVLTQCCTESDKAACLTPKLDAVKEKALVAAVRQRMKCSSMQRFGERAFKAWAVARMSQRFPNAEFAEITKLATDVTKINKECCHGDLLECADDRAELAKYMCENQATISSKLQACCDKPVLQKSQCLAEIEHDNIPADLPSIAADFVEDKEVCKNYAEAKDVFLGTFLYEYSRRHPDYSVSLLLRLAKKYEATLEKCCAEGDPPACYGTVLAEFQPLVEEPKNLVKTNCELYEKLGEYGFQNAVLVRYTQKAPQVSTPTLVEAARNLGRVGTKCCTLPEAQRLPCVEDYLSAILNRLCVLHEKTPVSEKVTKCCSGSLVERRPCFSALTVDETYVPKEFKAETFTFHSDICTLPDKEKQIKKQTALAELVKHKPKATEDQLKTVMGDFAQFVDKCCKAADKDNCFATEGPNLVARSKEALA
T3 sequence (P07724 25-608 limits assumed): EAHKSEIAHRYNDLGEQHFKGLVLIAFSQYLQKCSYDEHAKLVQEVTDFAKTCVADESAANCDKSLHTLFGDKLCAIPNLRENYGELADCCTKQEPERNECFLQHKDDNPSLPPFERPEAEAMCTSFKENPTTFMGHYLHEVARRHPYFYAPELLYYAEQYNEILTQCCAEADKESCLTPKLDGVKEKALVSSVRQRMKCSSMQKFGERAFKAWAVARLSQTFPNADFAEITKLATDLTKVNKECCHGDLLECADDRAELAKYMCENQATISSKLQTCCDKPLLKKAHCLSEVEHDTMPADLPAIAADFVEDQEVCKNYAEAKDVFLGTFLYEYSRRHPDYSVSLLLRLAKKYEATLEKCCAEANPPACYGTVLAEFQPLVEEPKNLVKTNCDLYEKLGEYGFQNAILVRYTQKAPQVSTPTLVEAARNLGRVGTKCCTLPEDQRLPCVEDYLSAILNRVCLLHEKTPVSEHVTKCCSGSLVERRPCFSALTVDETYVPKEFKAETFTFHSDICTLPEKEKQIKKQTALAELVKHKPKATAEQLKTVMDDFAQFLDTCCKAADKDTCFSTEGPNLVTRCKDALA
T4 sequence (P22629 37-163 limits assumed): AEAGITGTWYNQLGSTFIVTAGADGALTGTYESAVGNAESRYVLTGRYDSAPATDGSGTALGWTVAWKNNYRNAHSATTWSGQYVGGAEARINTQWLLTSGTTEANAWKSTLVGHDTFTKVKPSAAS

B1: CD5 binder A1 (TRX-3 library) (designed binder)
chain: MVKQIESKTAFQEALDAAGDKLVVVDFSATQWWGWIDGQWSGPSKMIKPFFHSLSEKYSNVIFLEVDVDDAQDVASEAYPLFGMAALPTFQFFKKGQKVGEFSGANKEKLEATINELV
For B1, the binding result in experiment [1] is reported as “no binding”.

B2: CD5 binder E10 (TRX-3 library) (designed binder)
chain: MVKQIESKTAFQEALDAAGDKLVVVDFSATKERDSAWDDWSGPSKMIKPFFHSLSEKYSNVIFLEVDVDDAQDVASEAFYWSYPSLPPTFQFFKKGQKVGEFSGANKEKLEATINELV
Regarding B2, the binding result in experiment [1] was “no binding”.

B3: HSA binder G5 (TRX-3 library), phage-displayed (designed binder)
chain: MVKQIESKTAFQEALDAAGDKLVVVDFSATRLRTGGHPYWSGPSKMIKPFFHSLSEKYSNVIFLEVDVDDAQDVASEAVYVSLSRHRPTFQFFKKGQKVGEFSGANKEKLEATINELV
For B3, the binding result in experiment [2] and in experiment [3] was “no binding” in each case.

B4: HSA binder E5 (TRX-3 library), phage-displayed (designed binder)
chain: MVKQIESKTAFQEALDAAGDKLVVVDFSATRRNERARDWWSGPSKMIKPFFHSLSEKYSNVIFLEVDVDDAQDVASEALAAGPFYLLPTFQFFKKGQKVGEFSGANKEKLEATINELV
notes: AGPF loop 3′ motif
As for B4, the binding result in experiment [2] and in experiment [3] was “no binding” each time.

B5: CD5 binder E6 (TRX-3 library), phage-displayed (designed binder)
chain: MVKQIESKTAFQEALDAAGDKLVVVDFSATNTIKHGGSRWSGPSKMIKPFFHSLSEKYSNVIFLEVDVDDAQDVASEAEKGILVSPLPTFQFFKKGQKVGEFSGANKEKLEATINELV
notes: also called E6 phage
Regarding B5, the binding result in experiment [4] was “no binding”.

B6: HSA binder E1 (TRX-3 library), phage-displayed (designed binder)
chain: MVKQIESKTAFQEALDAAGDKLVVVDFSATRSENDRWNEWSGPSKMIKPFFHSLSEKYSNVIFLEVDVDDAQDVASEALIAGPFWYSPTFQFFKKGQKVGEFSGANKEKLEATINELV
notes: AGPF loop 3′ motif
For B6, the binding result in experiment [2] and in experiment [3] was “no binding” each time.

B7: E6-aerolysin fusion protein (other)
chain: MVKQIESKTAFQEALDAAGDKLVVVDFSATNTIKHGGSRWSGPSKMIKPFFHSLSEKYSNVIFLEVDVDDAQDVASEAEKGILVSPLPTFQFFKKGQKVGEFSGANKEKLEATINELVGEIPTLSALDIPDGDEVDVQWRLVHDSANFIKPTSYLAHYLGYAWVGGNHSQYVGEDMDVTRDGDGWVIRGNNDGGCDGYRCGDKTAIKVSNFAYNLDPDSFKHGDVTQSDRQLVKTVVGWAVNDSDTPQSGYDVTLRYDTATNWSKTNTYGLSEKVTTKNKFKWPLVGETELSIEIAANQSWASQNGGSTTTSLSQSVRPTVPARSKIPVKIELYKADISYPYEFKADVSYDLTLSGFLRWGGNAWYTHPDNRPNWNHTFVIGPYKDKASSIRYQWDKRYIPGEVKWWDWNWTIQQNGLSTMQNNLARVLRPVRAGITGDFSAESQFAGNIEIGAPVPLAADSKVRRARSVDGAGQGLRLEIPLDAQELSGLGFNNVSLSVTPAANQ
modifications: labelled with NHS-fluorescein for FACS (sites not given)
Consider B7, for which, in experiment [5], the “EC50, MTS cytotoxicity assay on CD5+ Raji cells, 48 hours” value came to 0.132 µM.

B8: CD5 binder A5 (TRX-3 library) (designed binder)
chain: MVKQIESKTAFQEALDAAGDKLVVVDFSATQCNTGESHDWSGPSKMIKPFFHSLSEKYSNVIFLEVDVDDAQDVASEAWSPLIMCTMPTFQFFKKGQKVGEFSGANKEKLEATINELV
For the molecule B8, the binding result in experiment [1] is given as “no binding”.

The values above are taken from patent publication US9340584 (GENERAL HOSPITAL, dated 2016).
